Read-outs that look alike come from different tables or passages of the source.
Experiments:
[1] = molecular target: Trichoplusia ni (Tni) beta-tubulin (Trichoplusia ni (endogenous in Tni cells)); test: cryo-EM structure
[2] = molecular target: Trichoplusia ni (Tni) beta-tubulin (Trichoplusia ni (endogenous in Tni cells)); test: cryo-EM structure; remark: listed apart in the source

stoichiometry N [1]: 2 | stoichiometry N [2]: 2
Substance: Trichoplusia ni (Tni) beta-tubulin (natural protein)
